Laboratory results: US20140087995A1 (published 2014)
Numbered stars: 1 amine (or outer) side, 2 acyl side, 3 side chain; on linkers, the order of the positions; unused ones are H or OH. Bridge positions count the residues as written; N and C are the ends. * marks the point of attachment. C20 diacid = O=C(O)CCCCCCCCCCCCCCCCCCC(=O)*; γGlu = O=C(O)[C@H](CCC(=O)[*:2])N[*:1]

Biological target: T1, human calcitonin receptor (human, UniProt P30988 25-474)
T1 construct: whole, on cells; Membranes of a BHK tk'ts 13 cell line stably transfected with the human calcitonin receptor; also called hCTR; hCT
T1 sequence (looked up): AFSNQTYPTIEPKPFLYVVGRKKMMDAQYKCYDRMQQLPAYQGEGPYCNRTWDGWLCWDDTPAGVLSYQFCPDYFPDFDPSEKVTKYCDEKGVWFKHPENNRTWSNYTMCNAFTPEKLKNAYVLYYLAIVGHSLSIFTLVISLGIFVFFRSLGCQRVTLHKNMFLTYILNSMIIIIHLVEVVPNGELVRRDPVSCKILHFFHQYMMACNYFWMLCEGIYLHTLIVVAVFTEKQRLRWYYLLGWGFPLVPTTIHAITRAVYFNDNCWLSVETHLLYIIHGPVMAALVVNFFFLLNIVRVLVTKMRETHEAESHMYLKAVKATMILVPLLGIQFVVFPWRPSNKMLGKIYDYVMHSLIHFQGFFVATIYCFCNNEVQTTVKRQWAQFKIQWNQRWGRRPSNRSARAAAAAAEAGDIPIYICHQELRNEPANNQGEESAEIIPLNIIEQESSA
Experiment: IC50 at hCTR divided by IC50 at hAmylin-R (reference)
Description: The resulting pellet was resuspended, homogenized and centrifuged (20.000 rpm, 15 min) in a buffer containing 20 mM Na-HEPES and 0.1 mM EDTA (pH 7.4, buffer 2). The resulting pellet was resuspended in buffer 2 and protein concentration was measured (BCA protein Assay, Pierce). The homogenate was kept cold during the whole procedure. The membranes were kept at −80° C. until use. The assay was performed in a 384 well Optiplate (PerkinElmer) in a total volume of 40 ul. Membranes were mixed with SPA beads. Final concentration of membranes 35 ng/μL final and SPA beads was 0.05 mg/well. Test-compounds were dissolved in DMSO and further diluted in assay buffer (50 mM Hepes, pH 7.4, 1 mM CaCl2, 5 mM MgCl₂, 0.1% OA and 0.02% Tween20). […] The final mixture was incubated with shaking at 400 rpm for 120 min at 25° C. prior to centrifugation (1500 rpm, 10 min). Samples were analyzed on TopCounter™ (Packard). The IC₅₀ was calculated using (one site binding competition analysis) GraphPad Prism5 as a measure of receptor affinity.
Membranes were prepared in the following way; the cells were rinsed with PBS and incubated with Versene for approximately 5 min before harvesting. The cells were flushed with PBS and the cell-suspension was centrifuged for 5 min at 1000 rpm. Cells were homogenized (Ultrathurrax) in a buffer containing 20 mM Na-HEPES and 10 mM EDTA (pH 7.4) and centrifuged at 20.000 rpm for 15 min. The resulting pellet was resuspended, homogenized and centrifuged (20.000 rpm, 15 min) in a buffer containing 20 mM Na-HEPES and 0.1 mM EDTA (pH 7.4, buffer 2). The resulting pellet was resuspended in buffer 2 and protein concentration was measured (BCA protein Assay, Pierce). The homogenate was kept cold during the whole procedure. The membranes were kept at −80° C. until use. Assay was performed in a 384 well Optiplate (PerkinElmer) in a total volume of 40 ul. Membranes were mixed with SPA beads.

- Ratio hCT/hAmylin binding: 26
B1: N^α1 N^α1-[(4S)-4-carboxy-4-[[(4S)-4-carboxy-4-(19-carboxynonadecanoylamino)butanoyl]amino]butanoyl]-[Glu14,Arg17,Pro21,Pro27]-h-amylin (peptide)
peptide: {C20 diacid-γGlu-γGlu}-KCNTATCATQRLAEFLRHSSPNFGAIPSSTNVGSNTY-NH2
modifications: disulfide 2-7
SMILES: CC[C@H](C)[C@H](NC(=O)[C@H](C)NC(=O)CNC(=O)[C@H](Cc1ccccc1)NC(=O)[C@H](CC(N)=O)NC(=O)[C@@H]1CCCN1C(=O)[C@H](CO)NC(=O)[C@H](CO)NC(=O)[C@H](Cc1c[nH]cn1)NC(=O)[C@H](CCCNC(=N)N)NC(=O)[C@H](CC(C)C)NC(=O)[C@H](Cc1ccccc1)NC(=O)[C@H](CCC(=O)O)NC(=O)[C@H](C)NC(=O)[C@H](CC(C)C)NC(=O)[C@H](CCCNC(=N)N)NC(=O)[C@H](CCC(N)=O)NC(=O)[C@@H](NC(=O)[C@H](C)NC(=O)[C@@H]1CSSC[C@H](NC(=O)[C@H](CCCCN)NC(=O)CC[C@H](NC(=O)CC[C@H](NC(=O)CCCCCCCCCCCCCCCCCCC(=O)O)C(=O)O)C(=O)O)C(=O)N[C@@H](CC(N)=O)C(=O)N[C@@H]([C@@H](C)O)C(=O)N[C@@H](C)C(=O)N[C@@H]([C@@H](C)O)C(=O)N1)[C@@H](C)O)C(=O)N1CCC[C@H]1C(=O)N[C@@H](CO)C(=O)N[C@@H](CO)C(=O)N[C@H](C(=O)N[C@@H](CC(N)=O)C(=O)N[C@H](C(=O)NCC(=O)N[C@@H](CO)C(=O)N[C@@H](CC(N)=O)C(=O)N[C@H](C(=O)N[C@@H](Cc1ccc(O)cc1)C(N)=O)[C@@H](C)O)C(C)C)[C@@H](C)O
notes: modifications are with respect to human amylin; also called compound 15
